What was measured:
Type in all cases: biochemical
[1] = PS80 degradation by spiked-in recombinant SIAE (2D-LC-CAD); details: 0.1% PS80, SIAE 50 ppm, 5 days at 45° C.
Procedure: (§1) Two-Dimensional Liquid Chromatography-Charged Aerosol detector (CAD)/Mass Spectrometry (MS) Assay to Detect Polysorbate Degradation. Degradation of PS20 and PS80 in CHO cell-free media or formulated antibody were analyzed by two-dimensional HPLC-CAD/MS system. The details of the setup were previously described by Genentech (Yi Li et al., Characterization and Stability Study of Polysorbate 20 in Therapeutic Monoclonal Antibody Formulation by Multidimensional Ultrahigh-Performance Liquid Chromatography-Charged Aerosol Detection-Mass Spectrometry, 86 ANALYTICAL CHEMISTRY 5150-5157 (2014)). Polysorbates were separated from formulated mAb by using Oasis MAX column (20 mm×2.1 mm, 30 μm, Waters, Milford, Mass., U.S.A.). Initial condition was set at 1% solvent B (0.1% formic acid in acetonitrile) and held for 1 min. It was increased to 20% in 1.5 minutes and dropped back down to 1% in 1.5 minutes. […]
(§2) Peak area of each ester was obtained from the CAD detector and added up to account for intact PS20 or PS80. The remaining percentage of PS20 or PS80 used in this work was calculated by comparing sum of the peak area of monoester eluting between 27.5 min and 33 min at each time point to sum of peak areas at time zero. Relative percent of different order ester or total esters can be calculated similarly.

[2] = PS20 incubated with LAL and SIAE (CAD profile); details: 0.2% PS20 with 10 ppm LAL and 10 ppm SIAE together, after 5 days
Procedure: To examine the effect of both SIAE and LAL on PS20, 10 ppm of LAL and 10 ppm of SIAE were incubated with a solution comprising 0.2% PS20. Polysorbate in formulated mAbs were detected and identified as shown in Example 1.

[3] = PS20 degradation by recombinant SIAE (2D-LC-CAD)
Procedure: as §1, with “(2014)).” for “(2014)). Polysorbates were separated from formulated mAb by using Oasis MAX column (20 mm×2.1 mm, 30 μm, Waters, Milford, Mass., U.S.A.). Initial condition was set at 1% solvent B (0.1% formic acid in acetonitrile) and held for 1 min. It was increased to 20% in 1.5 minutes and dropped back down to 1% in 1.5 minutes.”
The 2D-LC system was set up with Thermo UltiMate 3000 and coupled with Corona Ultra CAD detector. Operating at nitrogen pressure of 75 psi for quantitation. […]
as §2
Hydrolysis of Polysorbate 20 with Sialate O-acetylesterase (SIAE) and Formulated Antibody. […] The influence of pH on the rate of PS20 degradation was determined by evaluating activity at 5.3, 6.0 and 8.0 in acetate, histidine and citrate buffer system.

PS80 degradation by LAL = details: LAL 10 ppm and 20 ppm, 5 days at 45° C.
Excerpt: LAL has an ability to hydrolyze primary and higher order esters.

[4] = PS20 degradation by human PLBD2 and CHO PLBD2; details: PLBD2 200 μg/mL, 0.1% PS20, 45° C., 5 days
Procedure: (§3) Hydrolysis of Polysorbate 20 and PS80 with Putative Phospholipase B-like 2 (PLBD2) and Formulated Antibody. To evaluate the effect of PLBD2 on PS20 and PS80 degradation, 16 μL of 10 mM Histidine buffer pH 6.0 was mixed with 2 μL of 1% PS20 or 1% PS80, followed by adding 2 μL of […] PLBD2 and incubating the sample at 45° C. for 5 days. One aliquot (3 μL) of each sample was diluted twenty-five time by adding 72 μL 10 mM histidine, pH 6.0 and used for LC-CAD analysis.
(§4) Polysorbates degradation by recombinant human PLBD2 and in-house CHO PLBD2 was monitored as outlined in the Material and Methods section. Recombinant human PLBD2 and in-house CHO PLBD2 with concentration at 200 μg/mL were incubated with 0.1% of PS20 and PS80 for 5 days. […] By incubating PS20 with OriGene human PLBD2, a decrease in signal intensity occurred on POE-ester peaks eluting at between 27.5 and 38 minutes. The peaks eluted before 34 minutes were POE monoester containing short fatty acid chain, for example, POE sorbitan monolaurate, POE isosorbide monolaurate, POE sorbitan monomyristate and POE isosorbide monomyristate. […] Instead, because both PLBD2 proteins contain a high level of impurities, it is more likely that the difference in esterase activity originated from some unknown HCP impurities other than from PLBD2 itself.

[5] = PS80 degradation by human PLBD2 and CHO PLBD2; details: PLBD2 200 μg/mL, 0.1% PS80, 45° C., 5 days; peaks eluting between 30 and 35 minutes
Procedure: as §3, §4

B1: SIAE: recombinant sialate O-acetylesterase, host cell protein overexpressed and purified in CHO (protein)
chain: MVSLGSVFGLLLLLIIVRASRSAGIDFRFGSYIDNYMVLQKEPSGAVIWGFGTPGATVTVTLCQGQNTFKKKVTTVKAHSNTWVVVLDPMKPGGPYEVMAKQTFGITNVTLRIHDILFGDVWLCSGQSNMKMTVLQIFNASKELAVAAAYQSVRIFSASLVQAEEELEDLDKVDLSWSRPTAGNLGNGNYTYMSAVCWLFGRYLYDNLQYPIGLVSSSWGGTPIEAWSSKRALKSCGVPNTSNERILQTTRSECKSEGSLCPLGSFTLPPSVTGPATHSVLWNAMIHPLQKMTLKGVIWYQGESNEDLNRDLYSCMFPALIDDWRQTFHDGSQKQTERFFPFGFVQLSSYAETNTSDYRFPEIRWHQTADFGFVPNLKMPNTFMAVAMDLCDLNSPFGSIHPRDKQTVAYRLHLGARALAYGEKNLAFQGPLPKKIELLAHSRLLSLTYDQKIQVHRQDNKSFEISCCSDRLCKWLPVSVNSFSTKTLILGISACRGTVVDVRYAWTTWPCDYKQCAVYHPSNTLPAPPFTAPITYQAPRFRASDSSTQE
Question: With B1 as the molecule, how does the PS80 degradation [1] read?
Answer: did not show any degradation

Question: And the “PS20 ester species degradation” value [2]?
Answer: all ester species degraded

Question: And the PS20 degradation ([3]; 0.1% PS20, SIAE 2.5 ppm, 45° C., 10 mM Histidine pH 6, 10-day incubation)?
Answer: Significant PS20 degradation

Question: What about the “pH effect on PS20 degradation by SIAE” value ([3]; SIAE directly incubated with PS20 in buffers pH 8.0, 6.0, 5.3) of the same molecule?
Answer: maximum degradation at pH 6.0

B2: LAL: lysosomal acid lipase encoded by the LIPA gene; recombinant, overexpressed in CHO cell (protein, UniProt P38571 77-399, looked up)
Lysosomal acid …: GPKPVVFLQHGLLADSSNWVTNLANSSLGFILADAGFDVWMGNSRGNTWSRKHKTLSVSQDEFWAFSYDEMAKYDLPASINFILNKTGQEQVYYVGHSQGTTIGFIAFSQIPELAKRIKMFFALGPVASVAFCTSPMAKLGRLPDHLIKDLFGDKEFLPQSAFLKWLGTHVCTHVILKELCGNLCFLLCGFNERNLNMSRVDVYTTHSPAGTSVQNMLHWSQAVKFQKFQAFDWGSSAKNYFHYNQSYPPTYNVKDMLVPTAVWSGGHDWLADVYDVNILLTQITNLVFHESIPEWEHLDFIWGLDAPWRLYNKIINLMRKYQ
Question: Which results are given for B2?
Answer: PS80 degradation (PS80 degradation by LAL): significant degradation of monoesters only; PS20 ester species degradation [2]: all ester species degraded

B3: human PLBD2: recombinant human putative phospholipase B-like 2 purchased from Origene (protein)
chain: IPAPGGRWARDGQVPPASRSRSVLLDVSAGQLLMVDGRHPDAVAWANLTNAIRETGWAFLELGTSGQYNDSLQAYAAGVVEAAVSEELIYMHWMNTVVNYCGPFEYEVGYCERLKSFLEANLEWMQEEMESNPDSPYWHQVRLTLLQLKGLEDSYEGRVSFPAGKFTIKPLGFLLLQLSGDLEDLELALNKTKIKPSLGSGSCSALIKLLPGQSDLLVAHNTWNNYQHMLRVIKKYWLQFREGPWGDYPLVPGNKLVFSSYPGTIFSCDDFYILGSGLVTLETTIGNKNPALWKYVRPRGCVLEWVRNIVANRLASDGATWADIFKRFNSGTYNNQWMIVDYKAFIPGGPSPGSRVLTILEQIPGMVVVADKTSELYQKTYWASYNIPSFETVFNASGLQALVAQYGDWFSYDGSPRAQIFRRNQSLVQDMDSMVRLMRYNDFLHDPLSLCKACNPQPNGENAISARSDLNPANGSYPFQALRQRSHGGIDVKVTSMSLARILSLLAASGPTWDQVPPFQWSTSPFSGLLHMGQPDLWKFAPVKVSWD
Question: For B3, which PS20 degradation [4] is on record?
Answer: Significant PS20 degradation

Question: What about the PS80 degradation [5] of the same molecule?
Answer: significant degradation

— US20210371455A1, “METHODS AND COMPOSITIONS COMPRISING REDUCED LEVEL OF HOST CELL PROTEINS” (Regeneron Pharmaceuticals, Inc., priority 2019, published 2021)
